Reference: patent US20260285971 (published 2026)

What was measured:
human GPRC5D [1] = target: T1, human GPRC5D (human); experiment: FACS RPMI-8226
T1 chain: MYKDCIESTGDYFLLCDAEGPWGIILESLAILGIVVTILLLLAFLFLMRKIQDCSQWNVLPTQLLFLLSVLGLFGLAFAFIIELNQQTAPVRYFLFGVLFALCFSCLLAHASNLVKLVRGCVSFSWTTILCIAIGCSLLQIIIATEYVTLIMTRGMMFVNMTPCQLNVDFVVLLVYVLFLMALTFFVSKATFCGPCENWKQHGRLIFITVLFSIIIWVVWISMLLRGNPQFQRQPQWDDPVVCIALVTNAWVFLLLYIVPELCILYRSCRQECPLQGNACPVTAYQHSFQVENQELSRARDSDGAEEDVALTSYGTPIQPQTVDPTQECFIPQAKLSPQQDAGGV

human GPRC5D [2] = target: T1, human GPRC5D; experiment: FACS NCI-H929
human GPRC5D [3] = target: T1, human GPRC5D; experiment: FACS molp-8
human GPRC5D [4] = target: T1, human GPRC5D; experiment: ELISA
human GPRC5D [5] = target: T1, human GPRC5D; experiment: FACS NCI-H929
human GPRC5D [6] = target: T1, human GPRC5D; experiment: ELISA
human GPRC5D [7] = target: T1, human GPRC5D; experiment: FACS RPMI-8226
human GPRC5D [8] = target: T1, human GPRC5D; experiment: FACS molp-8

Binder	EC50 (human GPRC5D [1])	EC50 (human GPRC5D [2])	EC50 (human GPRC5D [3])	EC50 (human GPRC5D [4])	EC50 (human GPRC5D [5])	EC50 (human GPRC5D [6])	EC50 (human GPRC5D [7])	EC50 (human GPRC5D [8])
HAB04-H7 (antibody, V domains shown) VH: EVQLVASGGGLVQPGGSLRLSCAASGFPYSTSRMGWFRQAPGKEREGVATIVPGTGYTYYVDSVKGRFTISQDNAKNSLYLQMNSLRAEDTAVYYCAAGDRRLLLNLLAPADYFYWGQGTMVTVSS	2420 pM	1340 pM	2670 pM	53.3 pM				
Lab04-huFc (antibody, V domains shown) VH: EVQLQASGGGSVQAGGSLRLSCVASGFPYSTSRVGWFRQAPGKEREGVATIVPGTGYTYYADSVKGRFTISQDSAKNTVYLQMNSLKPEDTAVYYCAAGDRRLLLNLLAPADYFYWGQGTQVTVSS	2490 pM	915 pM	1970 pM	35.3 pM				
HAB02-H5 (antibody, V domains shown) VH: EVQLVESGGGVVQPGRSLRLSCAASGYLYMGWFRQAPGKEREGVAAIVTQSGLTGYADSVKGRFTISQDNAKNRLYLQMNSLRAEDTAVYYCAAKSRLGWTLSPSAYNYWGRGTLVTVSS					501 pM	40.6 pM	1760 pM	1060 pM
Lab02-huFc (antibody, V domains shown) VH: DVQLQASGGGSVQAGESLRLSCAASGYLYMGWFRQAPGKEREGVAAIVTQSGLTGYADSVKGRFTISQDNAENRIYLQMNSLKPEDTAMYYCAAKSRLGWTLSPSAYNYWGRGTQVTVSS					672 pM	53 pM	1750 pM	876 pM
HAB02-H4 (antibody, V domains shown) VH: EVQLVESGGGVVQPGRSLRLSCAASGYLYMGWFRQAPGKEREGVAAIVTQSGLTGYADSVKGRFTISQDNSKNRLYLQMNSLRAEDTAVYYCAAKSRLGWTLSPSAYNYWGRGTLVTVSS					438 pM	39.5 pM	47900 pM	1300 pM
HAB02-H3 (antibody, V domains shown) VH: EVQLVESGGGVVQPGRSLRLSCAASGYLYMGWFRQAPGKEREGVAAIVTQSGLTYYADSVKGRFTISQDNSKNRLYLQMNSLRAEDTAVYYCAAKSRLGWTLSPSAYNYWGRGTLVTVSS					510 pM	42 pM	1880 pM	1600 pM

Continued by falling EC50 (human GPRC5D [5]), values first:

EC50 (human GPRC5D [1])	EC50 (human GPRC5D [2])	EC50 (human GPRC5D [3])	EC50 (human GPRC5D [4])	EC50 (human GPRC5D [5])	EC50 (human GPRC5D [6])	EC50 (human GPRC5D [7])	EC50 (human GPRC5D [8])	Binder
				400 pM	40.9 pM	1500 pM	1060 pM	HAB02-H8 (antibody, V domains shown) VH: EVQLVESGGGVVQPGRSLRLSCAASGYLYMGWFRQAPGKEREGVAAIVTQSGLTGYADSVKGRFTISQDNSKNRIYLQMNSLRAEDTAVYYCAAKSRLGWTLSPSAYNYWGRGTLVTVSS
				317 pM	36.1 pM	10200 pM	1540 pM	HAB02-H6 (antibody, V domains shown) VH: DVQLVESGGGVVQPGRSLRLSCAASGYLYMGWFRQAPGKEREGVAAIVTQSGLTGYADSVKGRFTISQDNSKNRLYLQMNSLRAEDTAVYYCAAKSRLGWTLSPSAYNYWGRGTLVTVSS
				312 pM	40.5 pM	3720 pM	602 pM	HAB02-H1 (antibody, V domains shown) VH: EVQLVESGGGVVQPGRSLRLSCAASGYLYMGWFRQAPGKEREGVAVIVTQSGLTYYADSVKGRFTISRDNSKNRLYLQMNSLRAEDTAVYYCAAKSRLGWTLSPSAYNYWGRGTLVTVSS
				299 pM	38.1 pM	3560 pM	742 pM	HAB02-H2 (antibody, V domains shown) VH: EVQLVESGGGVVQPGRSLRLSCAASGYLYMGWFRQAPGKEREGVAVIVTQSGLTYYADSVKGRFTISQDNSKNRLYLQMNSLRAEDTAVYYCAAKSRLGWTLSPSAYNYWGRGTLVTVSS
				220 pM	39.6 pM	256 pM	547 pM	HAB02-H7 (antibody, V domains shown) VH: EVQLQASGGGVVQPGRSLRLSCAASGYLYMGWFRQAPGKEREGVAAIVTQSGLTGYADSVKGRFTISQDNSKNRLYLQMNSLRAEDTAVYYCAAKSRLGWTLSPSAYNYWGRGTLVTVSS
